The record followed here is JPH06217786A.

The assay concerns the target FHV−1-K1ウイルス粒子 (feline herpesvirus-1, strain K1, virus particles; crude ammonium sulfate precipitate). In words: cell-based or functional assay.

B1: 抗FHV−1キメラ抗体FH2 (cat-type anti-FHV-1 chimeric antibody FH2) (antibody, part only; not given: cat constant regions, part only)
heavy, part: QVTLKESGPGILQPSQTLSLTCSFSGFSLSTSGMGAGWIRQPSGKGLEWLAHIWWDDVKRYNPALKSRLTISKDTSSSQVFLKIASVDTADTATYFCVRSQIYFDYDGAWFPFWGQGTLVTVSA
light, part: DIVLTQSPATLSVTPGDSVSLSCRASQSISNNLHWYQQKSHESPRLLIKYASQSISGIPSRFSGSGSGTDFTLSINSVETEDFGMYFCQQSNSWPHTFGAGTKLELK
The molecule B1 showed a 最低有効中和濃度 (lowest effective neutralising concentration; 100 TCID50 FHV-1, CPE on CRFK cells) of 1.95 µg/mL.
